Reference: patent US20120213804A1 (Pfizer, published 2012)
Read-outs that look alike come from different tables or passages of the source.

How the values were obtained:
[1] = molecular target: Fc-CD22 (UniProt P20273); assay: BIACORE, Fc-CD22 on CM5 chip; competitor G5/44 pre-bound
[2] = molecular target: Fc-CD22 (UniProt P20273); assay: BIACORE, Fc-CD22 on CM5 chip, no G5/44
[3] = molecular target: T1, CD33 on CD22- CD33+ HL-60 leukemia cells (human, UniProt P20138 18-364); assay: flow cytometry
T1 construct: whole, on cells
T1 sequence (P20138 18-364): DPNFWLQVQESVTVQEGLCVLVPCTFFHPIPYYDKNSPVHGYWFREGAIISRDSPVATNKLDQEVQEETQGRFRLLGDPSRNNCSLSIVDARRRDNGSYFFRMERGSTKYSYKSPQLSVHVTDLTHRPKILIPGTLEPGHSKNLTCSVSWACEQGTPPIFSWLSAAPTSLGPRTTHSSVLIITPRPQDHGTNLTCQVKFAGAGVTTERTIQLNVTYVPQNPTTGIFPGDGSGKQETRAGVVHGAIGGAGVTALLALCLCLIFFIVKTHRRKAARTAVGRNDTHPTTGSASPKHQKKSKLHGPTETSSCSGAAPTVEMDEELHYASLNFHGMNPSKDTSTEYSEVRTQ
Text: Purified human polyclonal IgG1 and IgG4 were also used as negative controls.

[4] = molecular target: T2, human CD22 on the surface of B cells (Ramos, RL, Daudi, Raji lymphoma cells; B cell lymphoma tissue) (human, UniProt P20273 20-847); assay: cell-based or functional assay
[5] = molecular target: T3, CD22mFc (UniProt P20273 20-687, limits assumed); assay: SPR (BIACORE 2000), CD22mFc on CM5 chip, global 1:1 Langmuir fit with mass transfer
T3 construct: also called CD22-mFc constructs; not shown: mouse Fc (captured by anti-mouse Fc)
Procedure: (§1) Biosensor analyses were carried out using a BIACORE™ 2000 (BIAcore AB, Uppsala, Sweden). CD22mFc was covalently immobilized on the N-hydroxysuccinimide-activated carboxymethyl dextran-coated biosensor chip (CM5) using a standard amine-coupling chemistry at a protein density of approximately 2000 resonance units. […] After the binding phase, dissociation of the bound antibody was monitored by washing the chip with the HBS buffer over a 15 minute period. The antigenic surface was regenerated by washing the Biosensor chip with 15 μl of the regeneration buffer (10 mM NaOH and 200 mM NaCl) for 30 seconds, followed by a stabilization time of 2 minutes before the next cycle. Kinetic constants were calculated by nonlinear least square regression analysis using a 1:1 Langmuir binding curve fitting model and BIAevaluation program (version 3.0, BIAcore).

[6] = molecular target: T3, CD22mFc; assay: SPR (BIACORE 2000), CD22mFc immobilized on CM5 chip
Procedure: as §1

[7] = molecular target: T2, human CD22 on the surface of B cells …; assay: cell-based or functional assay; remark: listed apart in the source
[8] = molecular target: T2, human CD22 on the surface of B cells …; assay: cell-based or functional assay; remark: listed apart in the source
[9] = molecular target: T3, CD22mFc; assay: Biacore 2000; CD22mFc captured via immobilized anti-mouse Fc, antibody in the soluble phase; column head '~KD nM'
Procedure: (§2) All binding measurements were performed in the BIACORE™ 2000 instrument (Pharmacia Biosensor AB, Uppsala, Sweden). The assay was performed by capture of CD22mFc via the immobilized anti-mouse Fc. The antibody was in the soluble phase. Samples, standard, and controls (50 μl) were injected over immobilized anti-mouse Fc followed by antibody in the soluble phase. After each cycle, the surface was regenerated with 50 μl of 40 mM HCl at 30 μl/min. The kinetic analysis was performed using the BIAevaluation 3.1 software (Pharmacia).

[10] = molecular target: T3, CD22mFc; assay: BIACORE 2000, CD22mFc captured via anti-mouse Fc
Procedure: as §2

## anti-CD22 antibody To 15 (Dako Corp)
[1]
  Inhibition by G544 (%): 7%
  Response 2 with G544 (combined response, RU): 1160 RU
  Response 3 (Response 2-1) (RU): 487 RU
  Response 3 adjusted for OFF rate of G544 (RU): 570 RU
[2]
  Binding of 2nd mAb without G544 adjusted for background (RU): 615 RU

## anti-CD19 antibody BU12 (Celltech)
[1]
  Inhibition by G544 (%): 0%
  Response 2 with G544 (combined response, RU): 603 RU
  Response 3 (Response 2-1) (RU): -83.5 RU
  Response 3 adjusted for OFF rate of G544 (RU): 0 RU

## anti-CD22 antibody SHCL-1, Leu 14 (Becton Dickinson)
[1]
  Inhibition by G544 (%): 69%
  Response 2 with G544 (combined response, RU): 580 RU
  Response 3 (Response 2-1) (RU): -74.5 RU
  Response 3 adjusted for OFF rate of G544 (RU): 9 RU
[2]
  Binding of 2nd mAb without G544 adjusted for background (RU): 29.3 RU

## anti-CD22 antibody 4 KB128 (Dako Corp)
[1]
  Inhibition by G544 (%): 0%
  Response 2 with G544 (combined response, RU): 1340 RU
  Response 3 (Response 2-1) (RU): 652 RU
  Response 3 adjusted for OFF rate of G544 (RU): 736 RU
[2]
  Binding of 2nd mAb without G544 adjusted for background (RU): 739 RU

## anti-CD22 antibody BLCAM, HD239 (Santa Cruz Biotech)
[1]
  Inhibition by G544 (%): 91%
  Response 2 with G544 (combined response, RU): 629 RU
  Response 3 (Response 2-1) (RU): -81.8 RU
  Response 3 adjusted for OFF rate of G544 (RU): 1.7 RU
[2]
  Binding of 2nd mAb without G544 adjusted for background (RU): 19.3 RU

B1: CMC-544 (G5/44-NAc-gamma-calicheamicin DMH AcBut conjugate), preparation not specified (antibody, human IgG4 S228P, kappa, V domains shown)
VH: EVQLVQSGAEVKKPGASVKVSCKASGYRFTNYWIHWVRQAPGQGLEWIGGINPGNNYATYRRKFQGRVTMTADTSTSTVYMELSSLRSEDTAVYYCTREGYGNYGAWFAYWGQGTLVTVSS
VL: DVQVTQSPSSLSASVGDRVTITCRSSQSLANSYGNTFLSWYLHKPGKAPQLLIYGISNRFSGVPDRFSGSGSGTDFTLTISSLQPEDFATYYCLQGTHQPYTFGQGTKVEIKR
modifications: NAc-gamma calicheamicin DMH AcBut conjugated to the antibody; chain and residues not stated
notes: also called NAc-Gamma Calicheamicin DMH AcBut-G5/44 immunoconjugate
[3]
  binding result: no binding
[4]
  killing of CD22+ target cells relative to the unconjugated drug: ≥ 10 times
[5]
  Kd: 200 pM

B2: humanized anti-CD22 antibody G5/44 (antibody, human IgG4 S228P, kappa, V domains shown)
VH: EVQLVQSGAEVKKPGASVKVSCKASGYRFTNYWIHWVRQAPGQGLEWIGGINPGNNYATYRRKFQGRVTMTADTSTSTVYMELSSLRSEDTAVYYCTREGYGNYGAWFAYWGQGTLVTVSS
VL: DVQVTQSPSSLSASVGDRVTITCRSSQSLANSYGNTFLSWYLHKPGKAPQLLIYGISNRFSGVPDRFSGSGSGTDFTLTISSLQPEDFATYYCLQGTHQPYTFGQGTKVEIKR
notes: also called Humanized G5/44; gL1gH7
[6]
  Ka: 7.9e+09 M⁻¹
  Kd: 130 pM
  koff: 2.8e-05 s⁻¹
  kon: 220000 M⁻¹ s⁻¹
[3]
  binding result: no binding
[5]
  Kd: 235 pM

B3: CMC-544, CMC-544 process, loading 65 µg/mg (antibody, human IgG4 S228P, kappa, V domains shown)
VH: EVQLVQSGAEVKKPGASVKVSCKASGYRFTNYWIHWVRQAPGQGLEWIGGINPGNNYATYRRKFQGRVTMTADTSTSTVYMELSSLRSEDTAVYYCTREGYGNYGAWFAYWGQGTLVTVSS
VL: DVQVTQSPSSLSASVGDRVTITCRSSQSLANSYGNTFLSWYLHKPGKAPQLLIYGISNRFSGVPDRFSGSGSGTDFTLTISSLQPEDFATYYCLQGTHQPYTFGQGTKVEIKR
modifications: NAc-gamma calicheamicin DMH AcBut conjugated, loading 65 µg/mg; chain and residues not stated
[7]
  growth inhibition IC50, Daudi #1: 21 pM of calicheamicin
  growth inhibition IC50, RL #1: 6 pM of calicheamicin
  growth inhibition IC50, RL #2: 12 pM of calicheamicin
  growth inhibition IC50, Raji #1: 500 pM of calicheamicin
  growth inhibition IC50, Raji #2: 560 pM of calicheamicin
  growth inhibition IC50, Ramos #1: 200 pM of calicheamicin
  growth inhibition IC50, Ramos #2: 260 pM of calicheamicin
[8]
  growth inhibition IC50, Daudi #1: 0.32 µg/mL of antibody
  growth inhibition IC50, RL #1: 0.09 µg/mL of antibody
  growth inhibition IC50, RL #2: 0.18 µg/mL of antibody
  growth inhibition IC50, Raji #1: 7.69 µg/mL of antibody
  growth inhibition IC50, Raji #2: 8.62 µg/mL of antibody
  growth inhibition IC50, Ramos #1: 3.08 µg/mL of antibody
  growth inhibition IC50, Ramos #2: 4 µg/mL of antibody

B4: CMC-544, CMA-676 process, loading 35 µg/mg (antibody, human IgG4 S228P, kappa, V domains shown)
VH: EVQLVQSGAEVKKPGASVKVSCKASGYRFTNYWIHWVRQAPGQGLEWIGGINPGNNYATYRRKFQGRVTMTADTSTSTVYMELSSLRSEDTAVYYCTREGYGNYGAWFAYWGQGTLVTVSS
VL: DVQVTQSPSSLSASVGDRVTITCRSSQSLANSYGNTFLSWYLHKPGKAPQLLIYGISNRFSGVPDRFSGSGSGTDFTLTISSLQPEDFATYYCLQGTHQPYTFGQGTKVEIKR
modifications: NAc-gamma calicheamicin DMH AcBut conjugated, loading 35 µg/mg; chain and residues not stated
[7]
  growth inhibition IC50, Daudi #1: 80 pM of calicheamicin
  growth inhibition IC50, RL #1: 30 pM of calicheamicin
  growth inhibition IC50, RL #2: 40 pM of calicheamicin
  growth inhibition IC50, Raji #2: 520 pM of calicheamicin
  growth inhibition IC50, Ramos #1: 130 pM of calicheamicin
[8]
  growth inhibition IC50, Daudi #1: 2.29 µg/mL of antibody
  growth inhibition IC50, RL #1: 0.86 µg/mL of antibody
  growth inhibition IC50, RL #2: 1.14 µg/mL of antibody
  growth inhibition IC50, Raji #2: 14.9 µg/mL of antibody
  growth inhibition IC50, Ramos #1: 3.71 µg/mL of antibody

B5: CMC-544 (87 µg/mg) (CMC-544 procedure) (antibody, human IgG4 S228P, kappa, V domains shown)
VH: EVQLVQSGAEVKKPGASVKVSCKASGYRFTNYWIHWVRQAPGQGLEWIGGINPGNNYATYRRKFQGRVTMTADTSTSTVYMELSSLRSEDTAVYYCTREGYGNYGAWFAYWGQGTLVTVSS
VL: DVQVTQSPSSLSASVGDRVTITCRSSQSLANSYGNTFLSWYLHKPGKAPQLLIYGISNRFSGVPDRFSGSGSGTDFTLTISSLQPEDFATYYCLQGTHQPYTFGQGTKVEIKR
modifications: NAc-gamma calicheamicin DMH AcBut conjugated, loading 87 µg/mg; chain and residues not stated
[6]
  Ka: 6.6e+09 M⁻¹
  Kd: 150 pM
  koff: 6.9e-05 s⁻¹
  kon: 460000 M⁻¹ s⁻¹

B6: CMC-544 (21 µg/mg) (CMA-676 procedure) (antibody, human IgG4 S228P, kappa, V domains shown)
VH: EVQLVQSGAEVKKPGASVKVSCKASGYRFTNYWIHWVRQAPGQGLEWIGGINPGNNYATYRRKFQGRVTMTADTSTSTVYMELSSLRSEDTAVYYCTREGYGNYGAWFAYWGQGTLVTVSS
VL: DVQVTQSPSSLSASVGDRVTITCRSSQSLANSYGNTFLSWYLHKPGKAPQLLIYGISNRFSGVPDRFSGSGSGTDFTLTISSLQPEDFATYYCLQGTHQPYTFGQGTKVEIKR
modifications: NAc-gamma calicheamicin DMH AcBut conjugated, loading 21 µg/mg; chain and residues not stated
[6]
  Ka: 8.1e+09 M⁻¹
  Kd: 120 pM
  koff: 6.1e-05 s⁻¹
  kon: 490000 M⁻¹ s⁻¹

B7: chimeric 5/44 variant K60R (antibody, V domains shown)
VH: EVQLQQSGTVLARPGASVKMSCKASGYRFTNYWIHWVKQRPGQGLEWIGGINPGNNYTTYRRNLKGKATLTAVTSASTAYMDLSSLTSEDSAVYYCTREGYGNYGAWFAYWGQGTLVTVSS
VL: DVVVTQTPLSLPVSFGDQVSISCRSSQSLANSYGNTFLSWYLHKPGQSPQLLIYGISNRFSGVPDRFTGSGSGTDFTLKISTIKPEDLGMYYCLQGTHQPYTFGGGTKLEIKR
notes: Human kappa / human gamma-4 constant regions; The position is as printed
[9]
  Kd: ~200 pM

B8: chimeric 5/44 variant T57A (antibody, V domains shown)
VH: EVQLQQSGTVLARPGASVKMSCKASGYRFTNYWIHWVKQRPGQGLEWIGGINPGNNYATYKRNLKGKATLTAVTSASTAYMDLSSLTSEDSAVYYCTREGYGNYGAWFAYWGQGTLVTVSS
VL: DVVVTQTPLSLPVSFGDQVSISCRSSQSLANSYGNTFLSWYLHKPGQSPQLLIYGISNRFSGVPDRFTGSGSGTDFTLKISTIKPEDLGMYYCLQGTHQPYTFGGGTKLEIKR
notes: Human kappa / human gamma-4 constant regions; The position is as printed (CDR-H2, Kabat definition); also called construct T57A
[10]
  affinity improvement compared to the chimeric 5/44 (fold): ~5 fold
[9]
  Kd: ~70 pM

B9: chimeric 5/44 variant N55Q (antibody, V domains shown)
VH: EVQLQQSGTVLARPGASVKMSCKASGYRFTNYWIHWVKQRPGQGLEWIGGINPGNQYTTYKRNLKGKATLTAVTSASTAYMDLSSLTSEDSAVYYCTREGYGNYGAWFAYWGQGTLVTVSS
VL: DVVVTQTPLSLPVSFGDQVSISCRSSQSLANSYGNTFLSWYLHKPGQSPQLLIYGISNRFSGVPDRFTGSGSGTDFTLKISTIKPEDLGMYYCLQGTHQPYTFGGGTKLEIKR
notes: as for B7
[9]
  Kd: ~300 pM
